Laboratory results published in the supplement of paper PMC12636428.

Tested on: Saccharomyces cerevisiae
Assay: transcriptional activation domain activity (GFP:mCherry ratio, weighted mean of sorted bins, harmonized to initial dataset scale) (arbitrary fluorescence ratio units); higher = stronger transcriptional activation
Details: beta-estradiol 1 µM; induction time 4 h
Outline: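 The listed activation activity is a read-weighted mean of bin median fluorescence, averaged across barcodes and linearly mapped onto the initial dataset scale. Barcoded tiles, fused to an estradiol-inducible synthetic transcription factor, were integrated at URA3 in yeast diploids bearing a GFP reporter. Cells were held 4 hours at 30 °C in SC with 1 uM beta-estradiol, sorted into 8 GFP:mCherry bins, and sequenced, and tiles with fewer than 50 reads were excluded.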

Sequence	transcriptional activation domain activity
EHQCATIQLDFQLPQQFNLEYMTSEKAPAAKIEAAPKTETAPKAEAPAAAPAA	42500
SLLPSPPQAVIFLVLFFSFLLLALFGYLFYFPLIPFLKTSIPIFSTYYSFFFM	24300
NGNMIVNFFYKNIICIGCLWWFQIYCGWSSQYVFEYTYLLFWNVFWSLCPVIA	38800
EALPDDLYFTDFVSPFTAAATTSVTTKTVKDTTPATNHMDDDIAMFDSLATTQ	47700
CDLQQSHYTPWRILFGLREPLVSAMNYLITYIPRGESSVIIGIRTFVLFSLCF	37900
MATVISGVCFFFFFFFFCFLLCLVMAFLLLFSFLFLCDLLLRLLLLSPSFDSL	31200
CLRVRGVLILTIERLLNDFADAEYRKYAKAILHCHQPYPNSSDCYCQILRSLV	36900
AWVLSLFLSFFGIGLVLGSGIWDLGFGLVFLFLVFSFFWGWFWVVLCVVYVDR	33800
MHCEGCIQVIYRCYCLLIFLFFYYVCLFCLYILGKQLGLVHVFFYKYWCFFIL	53100
VFLFLLTYFTIDIGLTNLPPLVIITVYLPHPPPLPDILLYWVLFLCCAVWGAV	39800
SLTQLIWYLLRRRPFTVLQLNHLFGLPDPLRILHLASSRRLWNAIPVITIATL	54600
ASSSDEEEQEVDDMETDSSKKRSHDETKEEEVEEEEERPKKTVKVEKPKEKKT	29200
VILGYCSLFVWFAVCGFCFLCFCVFVFLCFLFFVFFWHSSLGYLAGLAIIITF	18300
LLLESEPLFRCTLPTIRDNISAYLSFLQIPNGNATEELPQWMPYILLIFEILL	54400
SGDADEDGNGHGTHCSGTVAGKKYGVAKKAHVYAVKVLRSNGSGTMSDVVKGV	42000
MLQLWWLCVVFCVICFLCEWFRLGVVPPFLAATTLLQLFYFFYLLTFFCRVCA	50700
MATDATVNAPASAEATTARRRRSHQKSRLGCRNCKLRRVKCDERRPRCVKCRE	35500
DTKLIAISDANELKGFDSQCIEEWDPILFSAAEIWPTKGKPIALVEMDPIDFD	145000
RARRNSDSSIIDKAAQEKEDRRRRERRREREREEKDRDGKSSSTRKVRKPQGL	26200
PSASTRSAKSGSKGKGSKTTTVGSGSDTEKESAKMASSRSSKHSSSSRKDKSS	29200
QVLVLLLILLVFLVFQFLQMLSFLLKLPFVLKLEILLVLLVTKLWVFLFHLLL	41500

Sequence	transcriptional activation domain activity
AGDAFGAVESVKSASDIMSPVSGEVVEANVALKDKPALINRSPEEEGWIVRVR	52900
TVGVLILWCWLRLIQKALEKLHVKQIKTGHYGSPPLKNMLLPWLKQTFIFVLA	69100
MIHSIAVYIMLISSTLTHSLISLLFYILSLYVGIFYTYHILFKVLFICQWFLF	76200
AILLLSAYVLFLVVWLIFFSRVILLIPFFPGTPYNLAMPVVLLGLFYCFVFTW	32700
MLQVALYMRSSSLIISIWPRLSCSRFLLVLQLIVFSFHCQLVYSIYLMLLAFS	58300
SATEFVTVGGTGNVYHWDMEYSFSRNDDDNEDEVRVAAPEELQGQCLKFFHTG	51000
VAAVSRGEKERHRDRDREKKPSRSKPEKSSRRVVEKEEKTSSKGSASDKADKT	39700
PNWESLFGLMDFVRIRAEKLQWHLFLSLIRFMEAMIVRYMANYDRRTLHNSTE	44300
TNLLDRFQTYMERSRFHLLDLLFDFSSHFSAPLMKLAMQHARRWRRFSIFAFW	45100
ELGLLADIMQHEIQGFWGLIKILAKRRKNKYHANMADVNMRSVFQKAFTSWMM	44500
MSLKEKLSIIHMKIRHRIEMTILLLHIFSIPLCLSFFMLCCSFPFFWPFVILY	77600
TGTEQKKGIGGRRRRSKQASKQGSRPVCGHACACVCLCVPCLSCVCVSVLHLL	67800
HESDDFWRENASKLNEKDYEQLKLVPLHMFAPDWPLNCLLLRILVRLLSTEDP	30700
DRNYKRVARQIGFTIDRKHGDDLRHFPIERARLELIWPLLGFGLSCYLCYGWV	49600
AKMSVRPTVFGLNYIQLVAKLRLSLEDVRVEYLIYAAQILVLKDQFLRHEFHV	53000
MHLQGFVAWMFYILNCLAFSLRIISHWIFPIYLIWGIGLVENDYSSIDSWFLL	42100
FFLLFHIFHCLWGPRATILLFFSILLFFYPISTFMRCIIHRVFLLFFAFFFFL	22200
PNSSTSMDWLDNVIYTNRFVSGDDGSNSKTKNLDSNMFSNDFNFENQFDEQVS	91700
LNWYWLATTMYFLYGESVIYYFKHIVLVDKVLLPLATHHRFISFILYVFGFVF	71900
SLISFRLLGEVATGIKYLVCYDMPNMSRIEVELAKRLYCLILCGLCTWSIYGR	79500
MGLNLLVCIILVLHYFSTLLISFYFLLTVHTFRHIFAHSHSPVCMCLIFLTII	50200

Sequence	transcriptional activation domain activity
RISPGFIKKRRSSQTRQDEDHWQRVRELENQSSLYYLPIHEETPFFIDLIPNG	76200
CVFDMPCLWYGVYLVWFGVFSYLLLWCFALGAYYSSTVWSILWLIAAGSWCRQ	73300
RISGRVIWSLLICHASWYLNFFIQVGVLSKRLSSPVVLCGVVSFQLLNILLIT	53000
PEKCGDLVVIRGGRLHFRSSAVRLHLLQQMGKTLLLLKDAHLQLTLRTLLYAR	46500
ITHCPSTRVAYTYIVGLSTNAVMIGFVLCPHCFLAFQNPSQTLWFLSLFLLCL	47700
FSHIQPGLNVPVRTIMFCFLFNVAFGLLYLGPSVAFGAYVASCTILLNISYAF	70800
SFTNFLMALFGVLLGAIFLSIYTYYTFWRGCRSTILPCISSTWYKAFTILFYL	47600
YNGLPRFKWFISTVWVIYAGSCLLPFAGMVGTQILPLNRCIGVFKKPYPAILF	63300
TEEVVEPAAEKPAKKSRKRKSDVAEAVAEEKPETPVKPKKAKKEVAKAEEVVA	20400
SDEEGEMADRLADDDLDVSVLKTAKELAETAALYRIRNRRPTAHLVLPRVVEG	40200
LTEHSNVNSVIWTNDLLNLNFTNILNMGLYINPKNLIPISGNNNNNKSNEEDD	62300
SLSVVLLHMRHRRLLFSVVMILFIFWMLYVGHCMLYVLLLLRVLLLSLHLWIV	31700
EKRGAAKRADRSRSRSRGRSRGAKDVARRRRRNSSADSHEAREHRRQGKRGRS	44700
LPSFLFSSLYCFSLLFLSFLSFFPFLTLLLLFSLFPSLSLSLFFSLLFSPQRL	63400
TEYIYQGSNGLRWPPLAFPEHFVYPTEYIAHVYSWLILGLSYVYLLLLVFFYY	46100
KWLCYVELMNILTLGWPLSNIHFYICKYCAGWFRKYNYLFGTGINGGAQIFVL	66700
DPDASSFSGTVLDKAGSIARLSEDEQGGERAAKRRRLNKKVGMEAIAGLVGEY	40800
YRALHQRIWDEGLYECNYRAYAIECTRYVLLFTLMWVCLYFQRYFLGAFFLGA	83700
PCKCHTKRKSSRKSKGGSCHRRANDEAAHVNGLGIADLDVLLGLNGRSSDVDM	44000
